Results on 57 substances are retold here after patent US20190270817A1.

In one experiment the target is IL-21R-Fc (UniProt Q9HBE5). Put plainly: ForteBio Octet. (In general: In BLI a coated tip is dipped into the sample, and binding shifts an interference pattern.)
For experiment [1], the target named is cynomolgus monkey IL-21R-FLAG-His (monovalent) (cynomolgus monkey) (UniProt G7Q0S8). Put plainly: Octet, immobilized monovalent IL-21R-his.
Experiment [2] has as its target human IL-21R-FLAG-His (monovalent) (human) (UniProt Q9HBE5). The experiment is described as follows: Octet, immobilized monovalent IL-21R-his.
In a further experiment the target is IL-21R on Hut78 T cells (UniProt Q9HBE5). The experiment is described as follows: cell-based or functional assay.
The target of the next experiment is cynoPD1(1-167)-Flag-His (UniProt Q15116). Put plainly: Octet.
Experiment [3] concerns the target cynomolgus monkey PD-1(1-167)-FLAG-His (cynomolgus monkey). Put plainly: Octet, fusion amine-coupled to tips.
The target of experiment [4] is human PD-1(1-170)-FLAG-His (human) (UniProt Q15116). Put plainly: Octet, fusion amine-coupled to tips.
For experiment [5], the target named is human PD-1 on cells (human) (UniProt Q15116). Put plainly: cell-based or functional assay.
In experiment [6] the target is human IL-21R, recombinant soluble (FLAG-His or Fc, not stated which) (human) (UniProt Q9HBE5). Put plainly: not stated in the table (Octet per Example 11).
The target of experiment [7] is human PD-1(1-170)-FLAG-His (human) (UniProt Q15116). Put plainly: not stated in the table (Octet per Example 11).

Chain of IL-21R-Fc (Q9HBE5 20-232 limits assumed): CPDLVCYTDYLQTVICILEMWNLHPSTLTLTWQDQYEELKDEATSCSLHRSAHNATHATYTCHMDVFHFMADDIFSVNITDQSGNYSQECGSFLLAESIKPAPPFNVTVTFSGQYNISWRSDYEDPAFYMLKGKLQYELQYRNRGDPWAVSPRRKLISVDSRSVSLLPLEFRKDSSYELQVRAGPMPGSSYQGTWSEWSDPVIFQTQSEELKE
Chain of human IL-21R-FLAG-His (monovalent) (human) (Q9HBE5 20-232 limits assumed): as above
Chain of human PD-1(1-170)-FLAG-His (human) (Q15116 21-170 limits assumed): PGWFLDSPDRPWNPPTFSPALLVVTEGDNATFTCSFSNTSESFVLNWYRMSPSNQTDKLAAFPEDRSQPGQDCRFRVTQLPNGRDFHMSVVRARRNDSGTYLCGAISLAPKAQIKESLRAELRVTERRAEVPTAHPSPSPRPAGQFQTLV
Chain of IL-21R on Hut78 T cells (Q9HBE5 20-538 limits assumed): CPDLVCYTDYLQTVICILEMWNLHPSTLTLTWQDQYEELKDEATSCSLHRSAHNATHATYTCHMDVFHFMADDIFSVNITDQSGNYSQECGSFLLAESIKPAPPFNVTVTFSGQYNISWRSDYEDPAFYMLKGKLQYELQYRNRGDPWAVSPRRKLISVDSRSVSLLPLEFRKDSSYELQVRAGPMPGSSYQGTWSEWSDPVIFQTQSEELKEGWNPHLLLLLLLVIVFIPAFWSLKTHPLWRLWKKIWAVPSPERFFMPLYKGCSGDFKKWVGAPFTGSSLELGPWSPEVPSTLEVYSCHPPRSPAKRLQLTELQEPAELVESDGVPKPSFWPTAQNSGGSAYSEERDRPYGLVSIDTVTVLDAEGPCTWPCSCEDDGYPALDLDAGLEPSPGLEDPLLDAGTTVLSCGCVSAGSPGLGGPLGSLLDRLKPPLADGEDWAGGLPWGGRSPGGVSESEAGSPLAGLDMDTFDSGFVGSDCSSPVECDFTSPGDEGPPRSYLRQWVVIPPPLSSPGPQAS
Chain of cynomolgus monkey PD-1(1-167)-FLAG-His (cynomolgus monkey) (Q15116 other isoform, or with tags, fused parts or gaps): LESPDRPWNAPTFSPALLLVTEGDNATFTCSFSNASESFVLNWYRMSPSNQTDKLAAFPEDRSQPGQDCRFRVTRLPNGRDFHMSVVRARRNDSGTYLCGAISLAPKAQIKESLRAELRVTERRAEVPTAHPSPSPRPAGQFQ
Chain of human IL-21R, recombinant soluble (FLAG-His or Fc, not stated which) (human) (Q9HBE5 20-232 limits assumed): as the sequence (Q9HBE5 20-232 limits assumed) above
Chain of cynoPD1(1-167)-Flag-His (Q15116 other isoform, or with tags, fused parts or gaps): as the sequence (Q15116 other isoform, or with tags, fused parts or gaps) above
Chain of human PD-1 on cells (human) (Q15116 25-288 limits assumed): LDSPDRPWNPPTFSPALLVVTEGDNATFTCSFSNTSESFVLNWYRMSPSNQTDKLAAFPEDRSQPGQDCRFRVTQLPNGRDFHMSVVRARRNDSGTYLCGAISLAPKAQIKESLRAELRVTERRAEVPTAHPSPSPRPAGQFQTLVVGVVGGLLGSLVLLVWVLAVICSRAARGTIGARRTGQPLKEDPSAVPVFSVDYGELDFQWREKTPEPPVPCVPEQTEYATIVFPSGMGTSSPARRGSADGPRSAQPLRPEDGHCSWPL

What is called Kd is the free concentration of one partner at which half of the binding sites on the other are occupied at equilibrium, for simple one-to-one binding. Take “PD-1 mAb x IL-21 R9D (Mutant 22) (from UniProt Q9HBE4 30-162)”: the Kd with IL-21R-Fc is greater than 100 nM.

“PD-1 mAb x IL-21 S113K (Mutant C18) (from UniProt Q9HBE4 30-162)” returned a dissociation constant Kd in the experiment with IL-21R-Fc of 8.1 nM.

“PD-1 mAb x IL-21 R76D (Mutant 78) (from UniProt Q9HBE4 30-162)” had a Kd with IL-21R-Fc of 12 nM.

Regarding “PD-1 mAb x IL-21 K72P (Mutant 62) (from UniProt Q9HBE4 30-162)”, the Kd with IL-21R-Fc was found to be 8.96 nM.

In the experiment with IL-21R-Fc, “PD-1 mAb x IL-21 P78D (Mutant 96) (from UniProt Q9HBE4 30-162)” displayed a dissociation constant Kd of 1.23 nM.

In the case of “PD-1 mAb x IL-21 I66P (Mutant 53) (from UniProt Q9HBE4 30-162)”, the Kd in the experiment with IL-21R-Fc turned out to be 7.11 nM.

In the experiment with IL-21R-Fc, “PD-1 mAb x IL-21 K73A (Mutant 63) (from UniProt Q9HBE4 30-162)” came in with a Kd of 0.0525 nM.

“PD-1 mAb x IL-21 R76N (Mutant 86) (from UniProt Q9HBE4 30-162)”: the dissociation constant (Kd) with IL-21R-Fc was 15.3 nM.

Substance “PD-1 mAb x IL-21 Q12T (Mutant 41) (from UniProt Q9HBE4 30-162)” gave a Kd with IL-21R-Fc of less than 0.26 nM.

Consider “PD-1 mAb x IL-21 L13D (Mutant 43) (from UniProt Q9HBE4 30-162)”, for which the dissociation constant Kd with IL-21R-Fc was 11 nM.

With “PD-1 mAb x IL-21 Q116E (Mutant C21) (from UniProt Q9HBE4 30-162)”, the dissociation constant Kd with IL-21R-Fc stood at 7.95 nM.

In the experiment with IL-21R-Fc, “PD-1 mAb x IL-21 R76M (Mutant 85) (from UniProt Q9HBE4 30-162)” had a dissociation constant (Kd) of 0.6 nM.

In the experiment with IL-21R-Fc, “PD-1 mAb x IL-21 I8S (Mutant 20) (from UniProt Q9HBE4 30-162)” returned a Kd of 4 nM.

For the substance “PD-1 mAb x IL-21 K72D (Mutant 60) (from UniProt Q9HBE4 30-162)”, in the experiment with IL-21R-Fc, the equilibrium dissociation constant (Kd) came out at 0.235 nM.

With “PD-1 mAb x IL-21 R5A (Mutant 100) (from UniProt Q9HBE4 30-162)”, the Kd with IL-21R-Fc stood at 0.237 nM.

PD-1 mAb x IL-21 R76E (Mutant 79): the Kd in experiment [1] and in [2] was greater than 10 nM in each case.

On to “PD-1 mAb x IL-21 S70Y (Mutant 101) (from UniProt Q9HBE4 30-162)”, for which the dissociation constant Kd with IL-21R-Fc stood at 0.237 nM.

In the experiment with IL-21R-Fc, “PD-1 mAb x IL-21 K77G (Mutant 94) (from UniProt Q9HBE4 30-162)” registered a Kd of 0.658 nM.

The substance “PD-1 mAb x IL-21 K72G (Mutant 61) (from UniProt Q9HBE4 30-162)” showed a Kd in the experiment with IL-21R-Fc of 0.25 nM.

As for “PD-1 mAb x IL-21 I66D (Mutant 51) (from UniProt Q9HBE4 30-162)”, in the experiment with IL-21R-Fc, the Kd was 0.677 nM.

The substance “anti-TIGIT mAb fused to an IL-21 (R5Q:R76E) mutein (dimer)” displayed a pSTAT3 EC50, Hut78/TIGIT in the experiment with IL-21R on Hut78 T cells of 1390 pM.

With PD-1 mAb x IL-21 R76A (Mutant 77), the Kd in experiment [1] and in experiment [2] was greater than 10 nM each time.

Nivo huIgG1 mAb had a Kd with cynoPD1(1-167)-Flag-His of 3.5 nM.

Turning to “anti-PD-1 mAb fused to an IL-21 (R5Q:R76E) mutein (monomer)”, in the experiment with IL-21R on Hut78 T cells, the pSTAT3 EC50, Hut78/PD-1 stood at 341 pM.

With “PD-1 mAb x IL-21 R11D (Mutant c1) (from UniProt Q9HBE4 30-162)”, the dissociation constant (Kd) with IL-21R-Fc was found to be 0.411 nM.

The substance “PD-1 mAb x IL-21 Q12D (Mutant 37) (from UniProt Q9HBE4 30-162)” showed a Kd with IL-21R-Fc of 0.42 nM.

For “PD-1 mAb x IL-21 K73G (Mutant 66) (from UniProt Q9HBE4 30-162)”, the dissociation constant Kd with IL-21R-Fc was found to be 0.253 nM.

“PD-1 mAb x IL-21 Q12N (Mutant 39) (from UniProt Q9HBE4 30-162)” gave a Kd with IL-21R-Fc of 0.38 nM.

“PD-1 mAb x IL-21 S80G (Mutant 98) (from UniProt Q9HBE4 30-162)” registered a Kd with IL-21R-Fc of 0.265 nM.

“anti-PD-1 mAb x IL-21 R9E:R76A homodimer fusion” showed a pSTAT3 EC50, Hut78 PD-1+ T cells (n1) with IL-21R on Hut78 T cells of 16.6 nM. Besides, the pSTAT3 EC50, Hut78 PD-1- T cells (n1) with IL-21R on Hut78 T cells was greater than 1000 nM. The substance further showed a pSTAT3 EC50, Hut78 PD-1- T cells (n2) in the experiment with IL-21R on Hut78 T cells greater than 1000 nM. In addition, the dissociation constant Kd in experiment [3] is 5.9 nM; in experiment [4], 8.9 nM; in [1], greater than 300 nM; in experiment [2], greater than 300 nM.

“PD1 mAb x R9E:R76A monomer (chimera, mouse IgG1 constant region, C-terminal human IL-21 R9E:R76A)” showed a Hut78 PD1 (+) Interpolated EC50 with IL-21R on Hut78 T cells of 1.97 nM. Besides, the Hut78 PD-1 (-) Interpolated EC50 with IL-21R on Hut78 T cells was greater than 1000 nM. Further, the PD-1 reporter Interpolated EC50 in [5] is 1.61 nM. For the same substance, the Kd in experiment [6] is greater than 300 nM; in [7], 2.6 nM.

“PD-1 mAb x IL-21 D15S (Mutant C12) (from UniProt Q9HBE4 30-162)”: the dissociation constant (Kd) with IL-21R-Fc amounted to 6.6 nM.

On to “PD-1 mAb x IL-21 D15V (Mutant C14) (from UniProt Q9HBE4 30-162)”, for which the equilibrium dissociation constant (Kd) with IL-21R-Fc stood at 5.47 nM.

Take “anti-PD-1 mAb x IL-21 R5Q:R76E homodimer fusion”: the Kd in experiment [1] and in experiment [2] was greater than 300 nM throughout.

Regarding “PD-1 mAb x IL-21 R9G (Mutant 24) (from UniProt Q9HBE4 30-162)”, the dissociation constant Kd with IL-21R-Fc stood at 40 nM.

Substance “PD-1 mAb x IL-21 I16D (Mutant 44) (from UniProt Q9HBE4 30-162)” yielded a dissociation constant Kd in the experiment with IL-21R-Fc of 0.094 nM.

The substance “PD-1 mAb x IL-21 K75G (Mutant 75) (from UniProt Q9HBE4 30-162)” displayed a Kd in the experiment with IL-21R-Fc of 0.163 nM.

“PD-1 mAb x IL-21 Q19D (Mutant 46) (from UniProt Q9HBE4 30-162)” returned a Kd in the experiment with IL-21R-Fc of 0.17 nM.

As to “PD-1 mAb x IL-21 R76Y (Mutant 92) (from UniProt Q9HBE4 30-162)”, in the experiment with IL-21R-Fc, the Kd stood at 0.265 nM.

Consider “PD-1 mAb x IL-21 K73S (Mutant 72) (from UniProt Q9HBE4 30-162)”, for which the Kd in the experiment with IL-21R-Fc worked out at 0.167 nM.

Regarding “PD-1 mAb x IL-21 I14S (Mutant c5) (from UniProt Q9HBE4 30-162)”, in the experiment with IL-21R-Fc, the dissociation constant (Kd) stood at 0.166 nM.

In turn, “PD-1 mAb x IL-21 V69D (Mutant 54) (from UniProt Q9HBE4 30-162)” displayed a dissociation constant Kd in the experiment with IL-21R-Fc of 0.0395 nM.

Take “PD-1 mAb x IL-21 K73D (Mutant 64) (from UniProt Q9HBE4 30-162)”: the Kd with IL-21R-Fc turned out to be 0.435 nM.

Turning to “PD-1 mAb x IL-21 Q12E (Mutant 38) (from UniProt Q9HBE4 30-162)”, the dissociation constant Kd with IL-21R-Fc worked out at 0.031 nM.

The substance “PD-1 mAb x IL-21 D15E (Mutant c7) (from UniProt Q9HBE4 30-162)” yielded a Kd with IL-21R-Fc of 0.249 nM.

In the experiment with IL-21R-Fc, “PD-1 mAb x IL-21 R9Y (Mutant 35) (from UniProt Q9HBE4 30-162)” showed a Kd of 0.63 nM.

As for “PD-1 mAb x IL-21 D15M (Mutant c9) (from UniProt Q9HBE4 30-162)”, the Kd with IL-21R-Fc is 0.163 nM.

In the experiment with IL-21R-Fc, “PD-1 mAb x IL-21 R9A (Mutant 21) (from UniProt Q9HBE4 30-162)” displayed a Kd of 6.84 nM.

As to “PD-1 mAb x IL-21 R76P (Mutant 87) (from UniProt Q9HBE4 30-162)”, the dissociation constant (Kd) with IL-21R-Fc came out at 0.4 nM.

In turn, “PD-1 mAb x IL-21 D15N (Mutant C10) (from UniProt Q9HBE4 30-162)” displayed a dissociation constant (Kd) with IL-21R-Fc of 11 nM.

“PD-1 mAb x IL-21 S70P (Mutant 59) (from UniProt Q9HBE4 30-162)” returned a Kd with IL-21R-Fc of 10 nM.

“PD-1 mAb x IL-21 S70G (Mutant 58) (from UniProt Q9HBE4 30-162)”: the dissociation constant Kd in the experiment with IL-21R-Fc amounted to 0.518 nM.

Consider “PD-1 mAb x IL-21 R65P (Mutant 50) (from UniProt Q9HBE4 30-162)”, for which, in the experiment with IL-21R-Fc, the Kd amounted to 0.9 nM.

In turn, “anti-PD-1 mAb x IL-21 R5E:R76A homodimer fusion” yielded a pSTAT3 EC50, Hut78 PD-1+ T cells (n1) with IL-21R on Hut78 T cells of 1.98 nM. In the experiment with IL-21R on Hut78 T cells, this substance gave a pSTAT3 EC50, Hut78 PD-1+ T cells (n2) of 1.49 nM. Besides, in the experiment with IL-21R on Hut78 T cells, the pSTAT3 EC50, Hut78 PD-1- T cells (n1) was greater than 1000 nM. In the experiment with IL-21R on Hut78 T cells, this substance returned a pSTAT3 EC50, Hut78 PD-1- T cells (n2) greater than 1000 nM. For the same substance, the Kd in experiment [3] was 5.9 nM; in [4], 7 nM; in experiment [1], greater than 300 nM; in experiment [2], greater than 300 nM.

Substance “PD-1 mAb x IL-21 D15A (Mutant c6) (from UniProt Q9HBE4 30-162)” displayed a Kd with IL-21R-Fc of 0.439 nM.

On to “PD-1 mAb x IL-21 K73I (Mutant 68) (from UniProt Q9HBE4 30-162)”, for which, in the experiment with IL-21R-Fc, the equilibrium dissociation constant (Kd) was determined as 0.172 nM.

In the experiment with IL-21R-Fc, “PD-1 mAb x IL-21 I66G (Mutant 52) (from UniProt Q9HBE4 30-162)” had a Kd of 4.55 nM.
